Experimental data from patent US20210077576A1.
Each block holds one molecule with its values, some of them ahead of it.

Legend:
[1] = biological target: monkey integrins on CV-1 and RF/6A cells; experiment: flow cytometry on CV-1 (monkey) cells, detection with an antibody against the Fc domain [panel CV-1 (monkey]
[2] = biological target: rabbit integrins on SIRC cells (rabbit corneal cells); experiment: flow cytometry on SIRC (rabbit cornea) cells, detection with an antibody against the Fc domain; cell of the drawn KD table, column SIRC [KD table]
[3] = biological target: rat integrins on Rat2 cells (rat fibroblasts); experiment: flow cytometry on Rat2 (rat fibroblast) cells, detection with an antibody against the Fc domain; cell of the drawn KD table, column Rat2 [KD table]
[4] = biological target: monkey integrins on CV-1 and RF/6A cells; experiment: flow cytometry on CV-1 (monkey) cells, bound protein detected with an antibody against the Fc domain; cell of the drawn KD table, column CV-1 [KD table]
[5] = biological target: monkey integrins on CV-1 and RF/6A cells; experiment: flow cytometry on RF/6A (monkey) cells, bound protein detected with an antibody against the Fc domain; cell of the drawn KD table, column RF/6A [KD table]
[6] = biological target: human integrins on U87MG cells (human tumor cells); experiment: flow cytometry on U87MG (human) cells, bound protein detected with an antibody against the Fc domain; cell of the drawn KD table, column U87MG [KD table]

EC50 (read off the curve) [1]: 2 nM
Kd [2]: 0.288 nM
Kd [3]: 1.01 nM
Kd [4]: 1.5 nM
Kd [5]: 0.5 nM
Molecule: NOD201 (2.5F peptide fused to human IgG1 Fc; no linker) (Fc fusion)

Kd [6]: 0.7 nM
B1: NOD201M (NOD201 with murine Fc domain; no linker) (Fc fusion)
chain: GCPRPRGDNPPLTCSQDSDCLAGCVCGPNGFCGEPRVPITQNPCPPLKECPPCAAPDLLGGPSVFIFPPKIKDVLMISLSPMVTCVVVDVSEDDPDVQISWFVNNVEVHTAQTQTHREDYNSTLRVVSALPIQHQDWMSGKEFKCKVNNRALPSPIEKTISKPRGPVRAPQVYVLPPPAEEMTKKEFSLTCMITGFLPAEIAVDWTSNGRTEQNYKNTATVLDSDGSYFMYSKLRVQKSTWERGSLFACSVVHEGLHNHLTTKTISRSLG
